Experiments:
[1] = biological target: T1, GLP1R (Homo sapiens, UniProt P43220); assay: Proximity based reaction assay, GLP1R constructions, tdTomato reporter, fluorescent microscopy; format: cell-based
T1 construct: Four TEV cleavage sites that are cleaved with varying efficiency were used for the GLP1R (1-426) constructions; expressed in transfected cells
Text: Stable cell lines containing the tdTomato reporter gene under control of UAS and GLP1R constructions with different TEV cleavage sites were studied.

[2] = biological target: glucagon-like peptide 1 receptor (GLP1R) (Homo sapiens, UniProt P43220); assay: Proximity based reaction assay, GLP1R-TEV cleavage site-transcription factor cell line, luciferase reporter; settings: for S/N ratio and noise with different TEV cleavage sites: GLP1R (1-426) constructions, Exendin-4 ligand, 1-3 days post infection
Chain of glucagon-like peptide 1 receptor (GLP1R) (Homo sapiens, UniProt P43220) (P43220 24-426): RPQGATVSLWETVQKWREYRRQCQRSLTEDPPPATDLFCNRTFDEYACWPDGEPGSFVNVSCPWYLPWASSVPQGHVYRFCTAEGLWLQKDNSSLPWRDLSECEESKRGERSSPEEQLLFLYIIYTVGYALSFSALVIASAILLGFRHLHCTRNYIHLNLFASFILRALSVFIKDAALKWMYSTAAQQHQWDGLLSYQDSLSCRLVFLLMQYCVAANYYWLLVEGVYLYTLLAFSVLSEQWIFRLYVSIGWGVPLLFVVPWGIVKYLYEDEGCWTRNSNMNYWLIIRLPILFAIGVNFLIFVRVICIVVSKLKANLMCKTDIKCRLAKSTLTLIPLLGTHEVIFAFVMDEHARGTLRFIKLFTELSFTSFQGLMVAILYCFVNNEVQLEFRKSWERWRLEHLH

[3] = biological target: CXCR4 (Homo sapiens, UniProt P61073); assay: Proximity based reaction assay with irrelevant receptor CXCR4 replacing GLP1R; format: cell-based; settings: irrelevant G protein-coupled receptor control
Chain of CXCR4 (P61073 whole entry, species assumed): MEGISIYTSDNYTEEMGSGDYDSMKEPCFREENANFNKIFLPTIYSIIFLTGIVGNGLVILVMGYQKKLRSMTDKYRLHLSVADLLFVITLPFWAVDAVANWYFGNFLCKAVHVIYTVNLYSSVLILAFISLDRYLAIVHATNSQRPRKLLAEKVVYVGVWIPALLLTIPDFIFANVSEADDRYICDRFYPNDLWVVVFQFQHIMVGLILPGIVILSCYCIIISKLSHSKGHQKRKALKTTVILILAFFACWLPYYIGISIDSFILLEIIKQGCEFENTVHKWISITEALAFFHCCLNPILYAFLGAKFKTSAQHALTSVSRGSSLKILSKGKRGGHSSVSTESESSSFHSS

[4] = biological target: T2, Thrombopoietin receptor (TpoR) (Homo sapiens, UniProt P40238); assay: Proximity based reaction assay, TpoR-TEV cleavage site-transcription factor cell line, luciferase reporter
T2 construct: The coding region of TpoR or GLP1R was followed by the TEV protease cleavage site and the GAL4-VP16 transcription factor; expressed in transfected cells
T2 sequence (P40238 26-635): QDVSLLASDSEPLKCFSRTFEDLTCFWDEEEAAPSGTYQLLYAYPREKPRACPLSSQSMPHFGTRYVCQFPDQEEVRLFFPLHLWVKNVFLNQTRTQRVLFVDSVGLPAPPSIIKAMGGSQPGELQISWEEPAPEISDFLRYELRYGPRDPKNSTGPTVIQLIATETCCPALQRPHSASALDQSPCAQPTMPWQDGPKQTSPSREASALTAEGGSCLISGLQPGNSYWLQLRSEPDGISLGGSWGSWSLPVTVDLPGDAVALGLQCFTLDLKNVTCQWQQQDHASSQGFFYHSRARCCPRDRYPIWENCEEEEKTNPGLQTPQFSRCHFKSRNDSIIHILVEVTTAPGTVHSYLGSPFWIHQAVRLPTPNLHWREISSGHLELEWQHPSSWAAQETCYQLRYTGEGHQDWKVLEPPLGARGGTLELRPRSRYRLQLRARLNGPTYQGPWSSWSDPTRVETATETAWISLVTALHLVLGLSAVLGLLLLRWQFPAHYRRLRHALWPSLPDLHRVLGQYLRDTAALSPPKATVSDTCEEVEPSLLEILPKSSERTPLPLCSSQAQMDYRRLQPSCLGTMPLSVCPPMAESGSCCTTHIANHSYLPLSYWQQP
Text: FIG. 2. Proximity based identification of Thrombopoietin receptor (TpoR) activation. Stable cell lines harboring the luciferase reporter gene under control of UAS and TpoR-TEV cleavage site-transcription factor were established. Cells were transduced with lentivirus encoding Thrombopoietin (TPO) or the TpoR binding antibodies 3D9 or 14F12. Genes encoding different linkers including 3, 5, 6, 8, or 10 copies of (GGGGS) (SEQ ID NO:1) or a human IgG1 Fc were placed between the ligand and PDGFR trans-membrane domain. Luciferase activities were measured 2 days post infection. The cell line harboring GLP1R-TEV cleavage site-Transcription factor was used as negative cell control. The reaction was controlled by measuring the luminescence signals from control lentivirus carrying irrelevant antibodies with the same linker type and length.
The stable cell line harboring both the UAS-reporter gene and receptor-cleavage site-transcription factor was plated in a 96 well plate at 20000 cells per well. Cells were infected by lentivirus carrying the ligand-TM-TEV protease at MOI equal to 1. Cells were cultured for 24-72 h before measuring the reporter gene activity. Luciferase activity was determined by using a luciferase assay system (Promega) while expression of tdTomato was observed by fluorescent microscopy.
A similarly constructed irrelevant antibody was used as a negative control. […]

[5] = tested on: glucagon-like peptide 1 receptor (GLP1R); assay: Proximity based reaction assay, GLP1R-TEV cleavage site-transcription factor cell line, luciferase reporter; settings: orthogonal control for non-specific interactions; membrane displayed ligand

T1 sequence (P43220 24-426, species assumed): as the sequence (P43220 24-426) above

ENFYFQS (SEQ ID NO:5) [TEV 2]
background with different TEV cleavage sites, tdTomato reporter [1]: much lower background | S/N ratio and noise with different TEV cleavage sites [2]: highest S/N ratio

ENLFFQS (SEQ ID NO:7) [TEV 4]
S/N ratio and noise with different TEV cleavage sites [2]: very high level of noise

ENLYFQS (SEQ ID NO:4) [TEV1]
S/N ratio and noise with different TEV cleavage sites [2]: very high level of noise

ENLYYQS (SEQ ID NO:6) [TEV 3]
background with different TEV cleavage sites, tdTomato reporter [1]: much lower background

Exendin-4
response when CXCR4 replaced the GLP1R [3]: no response

Thrombopoietin [TPO]
transcription factor mediated signal relative to the irrelevant antibody control ([4]; ligand displayed at plasma membrane via PDGFR TM-TEV protease, lentivirus, luciferase 2 days post infection): increased the transcription factor mediated signal | effect of linker length between ligand and TM domain on proximity-based signal ([4]; tandem repeats of GGGGS linker): generated similar signals | signal in cells bearing the wrong receptor (GLP1R-transcription factor fusion cell line) [5]: did not increase the signal

Vc1.1
signal to noise (S/N) ratio, non-specific peptide control [2]: even lower S/N

— patent publication US10655124B2, “Proximity based methods for selection of binding partners” (THE SCRIPPS RESEARCH INSTITUTE, priority 2014, dated 2020)
